Laboratory results as given in the supplement of paper PMC9112550, “Optimization of the antimicrobial peptide Bac7 by deep mutational scanning” (BMC Biology, 2022).

The sequences below were run on Escherichia coli TOP10 (assay: shrunken log2 fold change of peptide-encoding DNA abundance (4.5 h post-induction vs induction); higher = less antimicrobial activity (less host growth inhibition)). Conditions: time post-induction: 4.5 h; library: site-saturation at positions 5, 18, 19, 20.
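Further: peptides expressed intracellularly from a pBAD plasmid library in pooled LB shake-flask culture, induced with 0.3% L-arabinose, DNA abundance read by NGS, three biological replicates, DESeq2 with apeglm shrinkage.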

First: RRIRKRPPRLPRPRPRPMEGPRP
Second: RRIRRRPPRLPRPRPRPMAPPRP
The “shrunken log2 fold change” value of the first is lower: -0.01 for the first, 0.665 for the second.

Going from RRIRPRPPRLPRPRPRPDMDPRP to RRIRGRPPRLPRPRPRPKMWPRP, the “shrunken log2 fold change” value rises from -0.21 to 0.868.

RRIRIRPPRLPRPRPRPMLRPRP and RRIRQRPPRLPRPRPRPCGSPRP are within 0.2 log units of each other in “shrunken log2 fold change” value: -0.119 for the first, -0.000687 for the second.

RRIRARPPRLPRPRPRPHPNPRP and RRIRERPPRLPRPRPRPEARPRP are within 0.2 log units of each other in “shrunken log2 fold change” value: 0.21 for the first, 0.164 for the second.

RRIRIRPPRLPRPRPRPELMPRP and RRIRDRPPRLPRPRPRPWNHPRP are within 0.2 log units of each other in “shrunken log2 fold change” value: -0.00872 for the first, -0.00185 for the second.

RRIRNRPPRLPRPRPRPDLKPRP and RRIRSRPPRLPRPRPRPQVCPRP are within 0.2 log units of each other in “shrunken log2 fold change” value: 0.0748 for the first, -0.0852 for the second.

RRIRRRPPRLPRPRPRPVRIPRP and RRIRNRPPRLPRPRPRPGGHPRP are within 0.2 log units of each other in “shrunken log2 fold change” value: -0.00526 for the first, -0.102 for the second.

Compared with RRIRQRPPRLPRPRPRPVCYPRP, RRIRPRPPRLPRPRPRPQEGPRP is higher in “shrunken log2 fold change” value: -0.636 for the first, -0.259 for the second.

RRIRRRPPRLPRPRPRPLLMPRP and RRIRPRPPRLPRPRPRPTRFPRP are within 0.2 log units of each other in “shrunken log2 fold change” value: 0.395 for the first, 0.41 for the second.

First: RRIRHRPPRLPRPRPRPGGYPRP
Second: RRIRARPPRLPRPRPRPKTEPRP
The “shrunken log2 fold change” value of the first is lower: -0.258 for the first, 0.38 for the second.

RRIRNRPPRLPRPRPRPYGWPRP and RRIRLRPPRLPRPRPRPRNNPRP are within 0.2 log units of each other in “shrunken log2 fold change” value: -0.012 for the first, 0.019 for the second.

RRIRTRPPRLPRPRPRPCRRPRP and RRIRQRPPRLPRPRPRPKASPRP are within 0.2 log units of each other in “shrunken log2 fold change” value: -0.111 for the first, -0.0573 for the second.

First: RRIRIRPPRLPRPRPRPRMNPRP
Second: RRIRIRPPRLPRPRPRPDDSPRP
The “shrunken log2 fold change” value of the first is lower: -0.593 for the first, -0.267 for the second.

RRIRMRPPRLPRPRPRPELVPRP and RRIRVRPPRLPRPRPRPHTEPRP are within 0.2 log units of each other in “shrunken log2 fold change” value: 0.0445 for the first, -0.042 for the second.

First: RRIRTRPPRLPRPRPRPSTQPRP
Second: RRIRCRPPRLPRPRPRPFWYPRP
The “shrunken log2 fold change” value of the first is higher: -0.0187 for the first, -0.353 for the second.

First: RRIRGRPPRLPRPRPRPLIQPRP
Second: RRIRDRPPRLPRPRPRPREEPRP
The “shrunken log2 fold change” value of the first is lower: 0.827 for the first, 1.27 for the second.

RRIRKRPPRLPRPRPRPYFLPRP and RRIRYRPPRLPRPRPRPDSLPRP are within 0.2 log units of each other in “shrunken log2 fold change” value: -0.278 for the first, -0.142 for the second.

First: RRIRFRPPRLPRPRPRPYQVPRP
Second: RRIRWRPPRLPRPRPRPTQHPRP
The “shrunken log2 fold change” value of the first is lower: -0.153 for the first, 0.333 for the second.

First: RRIRRRPPRLPRPRPRPGYVPRP
Second: RRIRWRPPRLPRPRPRPFVGPRP
The “shrunken log2 fold change” value of the first is higher: 0.183 for the first, -0.166 for the second.

RRIRSRPPRLPRPRPRPNSFPRP was tested, and the “shrunken log2 fold change” value was -0.63.
